Test results taken from doi:10.1101/2023.04.24.538129 (bioRxiv, 2023).

Target: the molecule itself
Test: Thioflavin-T fluorescence

B1: human dysferlin C2A domain with the pathogenic mutation W52R (C2A^W52R) (domain or fragment)
chain: MLRVFILYAENVHTPDTDISDAYCSAVFAGVKKRTKVIKNSVNPVWNEGFERDLKGIPLDQGSELHVVVKDHETMGRNRFLGEAKVPLREVLATPSLSASFNAPLLDTKKQPTGASLVLQVSYT
- binding result: binds

B2: human dysferlin C2A domain with the pathogenic mutation V67D (C2A^V67D) (domain or fragment)
chain: MLRVFILYAENVHTPDTDISDAYCSAVFAGVKKRTKVIKNSVNPVWNEGFEWDLKGIPLDQGSELHDVVKDHETMGRNRFLGEAKVPLREVLATPSLSASFNAPLLDTKKQPTGASLVLQVSYT
- binding result: binds
